Source: US20100166741A1 (Genentech, published 2010)

T1: human FcγRIIb extracellular domain, His-tagged GST fusion (human, UniProt P31994 43-217)
T1 construct: extracellular domain; also called hFcgRIIb; CD32B; not shown: C-terminal Gly/His6/GST tag
T1 sequence (looked up): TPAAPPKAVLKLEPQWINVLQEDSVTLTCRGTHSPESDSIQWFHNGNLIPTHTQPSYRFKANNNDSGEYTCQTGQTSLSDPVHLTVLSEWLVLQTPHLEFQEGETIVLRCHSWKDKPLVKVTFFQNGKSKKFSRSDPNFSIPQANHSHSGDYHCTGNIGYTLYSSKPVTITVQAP

T2: human FcγRIIa extracellular domain, His-tagged GST fusion (human, UniProt P12318 34-217)
T2 construct: extracellular domain; also called hFcgRIIa; CD32A; not shown: C-terminal Gly/His6/GST tag
T2 sequence (looked up): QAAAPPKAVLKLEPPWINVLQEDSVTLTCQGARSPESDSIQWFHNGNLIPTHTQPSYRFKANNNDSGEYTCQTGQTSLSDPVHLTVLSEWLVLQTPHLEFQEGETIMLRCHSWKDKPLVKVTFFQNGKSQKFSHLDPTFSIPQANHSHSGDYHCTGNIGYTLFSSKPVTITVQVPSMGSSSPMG


Assays:
[1] = target: T3, miniBR3 displayed on M13 phage (epitope-tagged, fused to gene-8 major coat protein) (human; bacteriophage M13, UniProt Q96RJ3 17-42); experiment: shotgun Ala scan, miniBR3 phage
T3 construct: range 17-42; also called p-miniBR3
Excerpt: Each “partial miniBR3” template was used as the template for Kunkel mutagenesis with mutagenic oligonucleotides designed to replace the template stop codons with the complementary region of miniBR3, while simultaneously introducing mutations at the desired sites. At the sites of mutation, wild-type codons were replaced with the corresponding shotgun alanine codon (Weiss, supra). Each of these two libraries allowed for mutations at 11 residues in miniBR3 with no mutated positions in common between libraries. Library 1 encoded shotgun codons at positions 17, 18, 20-23, 25, 27, 28, 30, and 33, while library 2 encoded shotgun codons at positions 26, 29, 31, 34, and 36-42. Each library contained 2×10⁹ members, allowing for complete representation of the theoretical diversity (>10⁴-fold excess).
The display selection was included in order to normalize the anti-BR3 antibody-binding selection for expression differences between library members. Phage eluted from each target were propagated in E. coli XL1-blue; amplified phage were used for selection against the same target as in the previous round. After two rounds of selection, 48 individual clones from each library and selection were grown in a 96-well format in 400 L of 2YT medium supplemented with carbenicillin and KO7 helper phage.
F-values were calculated as previously described (Weiss, supra-, Gordon, supra). […] Deleterious mutations have ratios >1, while advantageous mutations have ratios <1; boldface indicates a >10-fold effect.

[2] = target: T4, human FcγRI extracellular domain, His-tagged GST fusion (human, UniProt P12314 16-292); experiment: ELISA, captured FcγR-GST, monomeric IgG
T4 construct: extracellular domain; also called hFcgRI; FcγRIA; not shown: C-terminal Gly/His6/GST tag

[3] = target: T1, human FcγRIIb extracellular domain, …; experiment: ELISA, captured FcγR-GST, multimeric IgG
Description: (§1) FcγRs were expressed as recombinant fusion proteins of the extracellular domain of the receptor alpha chains with gly/his6/glutathione-s-transferase (GST). Assay plates coated with anti-GST and blocked with BSA were used to capture each FcγR. Plates were washed with wash buffer (0.05% polysorbate 20 in PBS, pH 7.4) after each incubation. […] Bound antibody was detected with the horseradish peroxidase (HRP)-conjugated F(ab′)2 fragment of a goat anti-human IgG F(ab′)₂ (Jackson ImmunoResearch; West Grove, Pa.). Plates were developed with tetramethylbenzidine (TMB) (KPL, Inc.; Gaithersburg, Md.) as the substrate. Absorbance was measured at a wavelength of 450 nm with a reference of 650 nm. Mean absorbance values from duplicate wells were plotted as a function of antibody concentration. Data were fit to a four-parameter equation to determine the concentration that yields 50% of maximum binding to each FcγR (EC₅₀) for each antibody.

[4] = target: T2, human FcγRIIa extracellular domain, …; experiment: ELISA, captured FcγR-GST, multimeric IgG
Description: as §1

Binder | F value, mutation at BR3 A22 [1] | F value, mutation at BR3 A34 [1] | F value, mutation at BR3 D26 [1] | F value, mutation at BR3 E23 [1] | F value, mutation at BR3 F25 [1] | F value, mutation at BR3 G36 [1] | F value, mutation at BR3 H31 [1] | F value, mutation at BR3 L27 [1] | F value, mutation at BR3 L28 [1] | F value, mutation at BR3 L37 [1] | F value, mutation at BR3 L38 [1] | F value, mutation at BR3 P18 [1] | F value, mutation at BR3 P21 [1] | F value, mutation at BR3 P41 [1] | F value, mutation at BR3 R30 [1] | F value, mutation at BR3 R39 [1] | F value, mutation at BR3 R42 [1] | EC50 [2] | EC50 [3] | EC50 [4] | further results
2.1 (antibody, V domains shown, also called chimeric 2.1) VH: EVQLQESGPSLVKPSQTLSLTCSVTGDSITRGYWNWIRKFPGNKLEFMGYINYSGTTYYNPSLKSRISITRDTSKNQYYLQLNSVTTEDTATYYCATPHTYGAMDYWGQGTTLTVSA VL: DIVLTQSPVSLAVSLGQRATISCRASESVDDYGISFMHWYQQKPGQPPKLLIYRASDLESGIPARFSGSGSGTDFTLTINPVETDDVAIYYCQQTSKDPWTFGGGT | 3.2 | 62 | 6.1 | 9.6 | 49 | 14 | 0.6 | 0.8 | 0.1 | 0.1 | 0.9 | 0.5 | 1.9 | 0.7 | 10 | 0.5 | 1.8 |  |  |  | F value, mutation at BR3 T17 [1]: 0.6; F value, mutation at BR3 T40 [1]: 0.2; F value, mutation at BR3 V20 [1]: 3; F value, mutation at BR3 V29 [1]: 0.5; F value, mutation at BR3 V33 [1]: 10
Hu9.1RF IgG1 2% G0-F (antibody, 2% G0-F (afucosylated) Fc glycan content, Same protein as Hu9.1RF IgG1; glycoform composition; also called 2% G0-F GLP-Hu9.1RF IgG1; 2% afucosylated Hu9.1RF IgG1) heavy: not shown light: DIQMTQSPSSLSASVGDRVTITCKSSQSLLYSSNQNNYLAWYQQKPGKAPKLLIYWASTRESGVPSRFSGSGSGTDFTLTISSLQPEDFATYYCQQYYTYPYTFGQGTKVEIKRTVAAPSVFIFPPSDEQLKSGTASVVCLLNNFYPREAKVQWKVDNALQSGNSQESVTEQDSKDSTYSLSSTLTLSKADYEKHKVYACEVTHQGLSSPVTKSFNRGEC |  |  |  |  |  |  |  |  |  |  |  |  |  |  |  |  |  | 0.00392 µg/mL | 0.96 µg/mL | 0.3 µg/mL | 
Hu9.1RF IgG1 10% G0-F (antibody, expected 10% G0-F (determined 8%), Mixture of 37% G0-F and 2% G0-F Hu9.1RF IgG1) heavy: not shown light: DIQMTQSPSSLSASVGDRVTITCKSSQSLLYSSNQNNYLAWYQQKPGKAPKLLIYWASTRESGVPSRFSGSGSGTDFTLTISSLQPEDFATYYCQQYYTYPYTFGQGTKVEIKRTVAAPSVFIFPPSDEQLKSGTASVVCLLNNFYPREAKVQWKVDNALQSGNSQESVTEQDSKDSTYSLSSTLTLSKADYEKHKVYACEVTHQGLSSPVTKSFNRGEC |  |  |  |  |  |  |  |  |  |  |  |  |  |  |  |  |  | 0.00391 µg/mL | 0.88 µg/mL | 0.24 µg/mL | 
Hu9.1RF IgG1 20% G0-F (antibody, expected 20% G0-F (determined 23%), Mixture of 37% G0-F and 2% G0-F Hu9.1RF IgG1) heavy: not shown light: DIQMTQSPSSLSASVGDRVTITCKSSQSLLYSSNQNNYLAWYQQKPGKAPKLLIYWASTRESGVPSRFSGSGSGTDFTLTISSLQPEDFATYYCQQYYTYPYTFGQGTKVEIKRTVAAPSVFIFPPSDEQLKSGTASVVCLLNNFYPREAKVQWKVDNALQSGNSQESVTEQDSKDSTYSLSSTLTLSKADYEKHKVYACEVTHQGLSSPVTKSFNRGEC |  |  |  |  |  |  |  |  |  |  |  |  |  |  |  |  |  | 0.00374 µg/mL | 0.82 µg/mL | 0.17 µg/mL | 
Hu9.1RF IgG1 4% G0-F (antibody, expected 4% G0-F (determined 3%), Mixture of 37% G0-F and 2% G0-F Hu9.1RF IgG1) heavy: not shown light: DIQMTQSPSSLSASVGDRVTITCKSSQSLLYSSNQNNYLAWYQQKPGKAPKLLIYWASTRESGVPSRFSGSGSGTDFTLTISSLQPEDFATYYCQQYYTYPYTFGQGTKVEIKRTVAAPSVFIFPPSDEQLKSGTASVVCLLNNFYPREAKVQWKVDNALQSGNSQESVTEQDSKDSTYSLSSTLTLSKADYEKHKVYACEVTHQGLSSPVTKSFNRGEC |  |  |  |  |  |  |  |  |  |  |  |  |  |  |  |  |  | 0.00373 µg/mL | 0.95 µg/mL | 0.26 µg/mL | 
Hu9.1RF IgG1 6% G0-F (antibody, expected 6% G0-F (determined 6%), Mixture of 37% G0-F and 2% G0-F Hu9.1RF IgG1) heavy: not shown light: DIQMTQSPSSLSASVGDRVTITCKSSQSLLYSSNQNNYLAWYQQKPGKAPKLLIYWASTRESGVPSRFSGSGSGTDFTLTISSLQPEDFATYYCQQYYTYPYTFGQGTKVEIKRTVAAPSVFIFPPSDEQLKSGTASVVCLLNNFYPREAKVQWKVDNALQSGNSQESVTEQDSKDSTYSLSSTLTLSKADYEKHKVYACEVTHQGLSSPVTKSFNRGEC |  |  |  |  |  |  |  |  |  |  |  |  |  |  |  |  |  | 0.00412 µg/mL | 0.91 µg/mL | 0.23 µg/mL | 
11G9 (antibody, V domains shown, also called chimeric 11G9) VH: DVQLQESGPSLVKPSQTLSLTCSVTGDSITSGYWNWIRKFPGNKLEYMGYISYSGSTYYNPSLKSRISITRDTSKNQFYLQLLSVTTEDTATYYCAGLDGLYWYFDVWGAGTLVTVSS VL: DIVMTQTPLSLPVSLGDQASISCRSSQSLVHSNGNTYLHWYLQKPGQSPKLLIYKVSNRFSGVPDRFSGSGSGTDFTLKISRVEAEDLGVYFCSQSTHVPPFTFGSGT | 45 | 32 | 8.5 | 6.9 | 38 | 1.8 | 2.8 | 1.1 | 0.4 | 0.7 | 0.9 | 0.5 | 40 | 1.7 | 1.7 | 3.1 | 0.9 |  |  |  | F value, mutation at BR3 T17 [1]: 0.5; F value, mutation at BR3 T40 [1]: 0.5; F value, mutation at BR3 V20 [1]: 1.1; F value, mutation at BR3 V29 [1]: 1; F value, mutation at BR3 V33 [1]: 24
V3-1 (antibody, V domains shown) VH: EVQLVESGGGLVQPGGSLRLSCAASGFTISSNSIHWVRQAPGKGLEWVAWITPSDGNTDYADSVKGRFTISADTSKNTAYLQMNSLRAEDTAVYYCARRVCYNRLGVCAGGMDYWGQGTLVTVSS VL: DIQMTQSPSSLSASVGDRVTITCRASQDVSTAVAWYQQKPGKAPKLLIYSASFLYSGVPSRFSGSGSGTDFTLTISSLQPEDFATYYCQQSRITPPTFGQGTKVEIKR | 0.7 | 13 | 8.7 | 2.4 | 21 | 0.7 | 0.1 | 1.4 | 98 | 0.7 | 1.4 | 0.8 | 0.6 | 1.6 | 20 | 0.4 | 0.9 |  |  |  | F value, mutation at BR3 T17 [1]: 0.5; F value, mutation at BR3 T40 [1]: 0.6; F value, mutation at BR3 V20 [1]: 0.9; F value, mutation at BR3 V29 [1]: 92; F value, mutation at BR3 V33 [1]: 14
